{
  "source": "patent US9395368B2",
  "about": "“Methods, agents and peptides for inducing an immune response to matrix metalloproteinase-2 expressing tumors” (New York University, priority 2010, dated 2016)",
  "key": {"[1]": {"system": "OX40L expression on DCs", "test": "OX40L expression on DCs by surface staining", "type": "cell-based, human", "conditions": "immature and poly(I:C)-matured DCs, n=9, 24 h", "method": "Immature and poly(I:C)-matured DCs were incubated with active or HI MMP-2 (0.5 μg/mL or 5 μg/mL) for 24 h. MMP-2 enzymatic activity was controlled (FIG. 13C-D). OX40L expression was assessed by surface staining (A) Histogram plots are shown for representative donor HD1228. Isotype control is represented in tinted gray. (B) Mean fluorescent intensities are represented for all 9 donors tested. […] P values≦0.0167 (*) were considered statistically significant using a Bonferroni correction for 3 comparisons for each DC type. See also FIG. 12.\nDendritic cell preparation and activation. PBMCs were purified from healthy—(HD) or cord blood—(CB) donors and plated at 40×10^6 cells/10 mL/dish in complete IMDM with 5% PHS. Cells were allowed to adhere for 2 h at 37° C. Non-adherent cells were removed. The monocyte-enriched fraction was supplemented with 100 UI/mL rhGMCSF and 300 UI/mL rhIL-4 (R&D Systems) on days 0, 2 and 4. Immature DCs were harvested on day 5 and matured using poly(I:C) at 5 μg/mL/10^6 DCs (Amersham) Secretion of IL-12p70, TNFα, IL-1β, IL-6, IL-8 and IL-10 was assessed on both immature and mature DCs using the Human Inflammatory Cytokine Cytometric Bead Array (BD Pharmingen)."}, "[2]": {"system": "CD4+ T cells from healthy donors", "test": "CD4+ T cells stimulated with autologous DCs loaded with whole MMP-2 protein, response to peptide pool", "type": "cell-based, human", "conditions": "DCs incubated with MMP-2 protein (10 μM), 12 days", "method": "(A) MMP-2-specific CD4^+ T cell clones were generated and characterized as described in Experimental Procedures. Clone HD9828/52 is shown as a representative example. Epitope specificities were assessed after overnight stimulation with individual peptides (2 μM). IFNγ, TNFα and IL-4 release was measured by ELISA. (B) All MMP-2-specific CD4^+ T cell clones were characterized by staining for CD4, CD8 and TCR Vβ chain expression. Clone HD9828/52 is shown as a representative example. (C) To establish HLA class-II isotype restriction, CD4^+ T cell clones were stimulated by corresponding peptides in the absence or presence of blocking mAb (10 μg/mL) for HLA-DP, HLA-DQ or HLA-DR and IFNγ release was measured by ELISA. (D) Purified CD4^+/CD25^− cells were stimulated for 12 days by autologous DCs incubated with MMP-2 protein (10 μM) and subsequently washed. MMP-2-specific CD4^+ T cells were detected by intracellular staining of IFNγ, TNFα and IL-4 after 6 hours of stimulation with MMP-2 peptide pool (2 μM). Numbers in the upper right quadrants are the percentages of each population.\nT Cell culture, stimulation and priming. Peripheral blood mononuclear cells (PBMCs) were purified from healthy donor-(HD) or cord blood donor-(CB) derived buffy coats (New York Blood Center) by Ficoll-Paque Plus (GE Healthcare) centrifugation. CD4^+/CD25^− cells were enriched (>90%) by magnetic cell sorting (Miltenyi Biotec) and primed/stimulated for 12-15 days either with irradiated (35Gy) autologous CD4^− cells or with autologous mature DCs in IMDM (GIBCO) supplemented with 1 mM HEPES (Life Technologies), 2 mM L-glutamine (Sigma), […] (Sigma) and 5% heat inactivated pooled human serum (PHS; Valley Biomedical) in the presence of rhIL-2 (10 UI/mL) and IL7 (5 ng/mL) (R&D Systems). Antigen presenting cells (CD4^− cells or DCs) were loaded either with peptides (2 μM) or with the MMP-2 protein (10 μg/mL) for 2 and 5 h, respectively. DCs were matured using the TLR3 agonist poly(I:C) at 5 μg/mL/10^6 DCs (Amersham). To generate T cell clones, we originally relied on our published methodology (Godefroy et al., 2006; Godefroy et al., 2007; the entire contents of each of which is incorporated herein by reference), involving enrichment of IFNγ-secreting cells upon short-term culture and peptide stimulation to generate MMP-2 responsive clones. Briefly, CD4^+ T cells were stimulated by CD4^− cells irradiated and pulsed with peptides for 12 days in the presence of rhIL-2 and rhIL-7. CD4^+ T cells were then restimulated with peptides for 3 hours before capturing IFNγ-secreting specific cells using a bispecific antibody coating T cells and capturing produced IFNγ. […]\nIntracellular staining T-bet and GATA-3 expression was measured on resting T cells. […]"}},
  "data": [
    {"molecule": "active MMP-2: Purified human MMP-2 (mixture of the proenzyme (50%) and the active form (50%)) purchased from Biomol (protein, listed as Homo sapiens) MEALMARGALTGPLRALCLLGCLLSHAAAAPSPIIKFPGDVAPKTDKELAVQYLNTFYGCPKESCNLFVLKDTLKKMQKFFGLPQTGDLDQNTIETMRKPRCGNPDVANYNFFPRKPKWDKNQITYRIIGYTPDLDPETVDDAFARAFQVWSDVTPLRFSRIHDGEADIMINFGRWEHGDGYPFDGKDGLLAHAFAPGTGVGGDSHFDDDELWTLGEGQVVRVKYGNADGEYCKFPFLFNGKEYNSCTDTGRSDGFLWCSTTYNFEKDGKYGFCPHEALFTMGGNAEGQPCKFPFRFQGTSYDSCTTEGRTDGYRWCGTTEDYDRDKKYGFCPETAMSTVGGNSEGAPCVFPFTFLGNKYESCTSAGRSDGKMWCATTANYDDDRKWGFCPDQGYSLFLVAAHEFGHAMGLEHSQDPGALMAPIYTYTKNFRLSQDDIKGIQELYGASPDIDLGTGPTPTLGPVTPEICKQDIVFDGIAQIRGEIFFFKDRFIWRTVTPRDKPMGPLLVATFWPELPEKIDAVYEAPQEEKAVFFAGNEYWIYSASTLERGYPKPLTSLGLPPDVQRVDAAFNWSKNKKTYIFAGDKFWRYNEVKKKMDPGFPKLIADAWNAIPDNLDAVVDLQGGGHSYFFKGAYYLKLENQSLKSVKFGSIKSDWLGC", "values": [
      {"measurement": "OX40L expression on DCs", "setting": "[1]", "result": "significantly increased"},
      {"measurement": "cells secreting IFNγ", "setting": "[2]; donor HD6026", "result": 0.12, "unit": "%"},
      {"measurement": "cells secreting IL-4", "setting": "[2]; donor HD6026", "result": 0.73, "unit": "%"},
      {"measurement": "cells secreting IFNγ", "setting": "[2]; donor HD6028", "result": 0.17, "unit": "%"},
      {"measurement": "cells secreting IL-4", "setting": "[2]; donor HD6028", "result": 1.99, "unit": "%"}
    ]}
  ]
}
